The values that follow come from patent US20190100597A1.

This assay deals with human CD20 on CD20-expressing cell lines (human) (UniProt P11836). The experiment in a line: cell-based or functional assay.
Sequence of human CD20 on CD20-expressing cell lines (human) (P11836 whole entry): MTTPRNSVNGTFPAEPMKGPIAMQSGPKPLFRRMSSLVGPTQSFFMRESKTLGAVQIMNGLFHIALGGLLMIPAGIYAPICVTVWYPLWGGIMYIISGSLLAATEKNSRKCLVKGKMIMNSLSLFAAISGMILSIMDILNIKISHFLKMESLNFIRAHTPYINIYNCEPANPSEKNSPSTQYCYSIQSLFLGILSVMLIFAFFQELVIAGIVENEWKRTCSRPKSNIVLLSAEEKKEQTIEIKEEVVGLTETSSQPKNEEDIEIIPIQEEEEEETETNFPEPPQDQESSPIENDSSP

Sequence of rituximab-derived anti-human CD20 IgM+J (antibody) (heavy): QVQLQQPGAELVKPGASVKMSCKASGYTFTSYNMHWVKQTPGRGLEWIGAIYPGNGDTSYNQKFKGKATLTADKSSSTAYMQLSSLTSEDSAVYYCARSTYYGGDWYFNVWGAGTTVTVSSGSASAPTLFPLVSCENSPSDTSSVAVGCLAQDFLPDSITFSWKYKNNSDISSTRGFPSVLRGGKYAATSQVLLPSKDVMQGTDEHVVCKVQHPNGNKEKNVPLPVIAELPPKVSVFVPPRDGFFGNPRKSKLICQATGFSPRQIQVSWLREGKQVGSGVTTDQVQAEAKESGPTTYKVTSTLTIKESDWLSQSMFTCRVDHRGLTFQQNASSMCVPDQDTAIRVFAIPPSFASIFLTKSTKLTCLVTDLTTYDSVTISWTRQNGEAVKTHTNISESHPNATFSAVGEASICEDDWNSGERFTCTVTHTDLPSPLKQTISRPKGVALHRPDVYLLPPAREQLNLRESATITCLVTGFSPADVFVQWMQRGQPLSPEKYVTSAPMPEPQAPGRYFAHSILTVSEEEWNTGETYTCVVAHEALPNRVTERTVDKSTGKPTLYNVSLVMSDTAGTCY
Sequence of rituximab-derived anti-human CD20 IgM+J (antibody) (light): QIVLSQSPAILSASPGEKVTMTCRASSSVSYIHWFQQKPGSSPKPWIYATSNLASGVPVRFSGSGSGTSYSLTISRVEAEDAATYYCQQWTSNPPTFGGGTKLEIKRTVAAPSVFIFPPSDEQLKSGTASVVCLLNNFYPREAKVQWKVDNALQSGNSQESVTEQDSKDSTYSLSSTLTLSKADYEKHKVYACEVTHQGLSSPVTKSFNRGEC
Sequence of rituximab-derived anti-human CD20 IgM+J (antibody) (chain): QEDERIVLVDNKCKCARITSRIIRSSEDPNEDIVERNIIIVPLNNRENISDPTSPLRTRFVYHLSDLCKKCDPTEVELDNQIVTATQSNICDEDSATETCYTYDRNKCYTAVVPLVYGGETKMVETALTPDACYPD

Consider “rituximab-derived anti-human CD20 IgM+J (antibody)”, for which the CDC (IC50) on Raji cells amounted to 2 mg/L, the CDC EC50 on DOHH-2 cells was 0.09 nM and the CDC EC50 on Z-138 cells is 0.41 nM.
